Experimental data from patent publication US20210122826A1 (MIT, published 2021).

Assays:
Experiment in all cases: flow, Jurkat, 100 nM Ab
human CD161 = molecular target: T1, human CD161 (human, UniProt Q12918 1-225)
T1 construct: UniProt Q12918; also called hCD161; KLRB1

cynomolgus CD161 = molecular target: T2, cynomolgus CD161 (cynomolgus)
T2 construct: UniProt A0A2K5WYI1; also called cynoCD161
T2 chain: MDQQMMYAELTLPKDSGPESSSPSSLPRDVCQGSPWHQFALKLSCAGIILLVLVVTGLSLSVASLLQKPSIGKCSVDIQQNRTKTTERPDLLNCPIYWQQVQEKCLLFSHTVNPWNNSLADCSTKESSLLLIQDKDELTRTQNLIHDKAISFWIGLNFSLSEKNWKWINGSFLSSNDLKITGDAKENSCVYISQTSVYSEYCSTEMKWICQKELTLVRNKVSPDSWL

Human KLRF1 = molecular target: T3, Human KLRF1 (human, UniProt Q9NZS2 1-231)
T3 construct: also called hKLRF1
T3 sequence: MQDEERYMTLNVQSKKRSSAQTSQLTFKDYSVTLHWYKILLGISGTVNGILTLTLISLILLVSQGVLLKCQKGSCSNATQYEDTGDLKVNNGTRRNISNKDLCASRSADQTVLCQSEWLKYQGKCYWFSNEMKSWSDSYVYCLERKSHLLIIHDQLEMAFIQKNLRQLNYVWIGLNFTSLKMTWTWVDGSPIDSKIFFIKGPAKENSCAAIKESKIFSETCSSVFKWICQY

Human CD94 = molecular target: T4, Human CD94 (human, UniProt Q13241 1-179)
T4 construct: also called hCD94
T4 sequence: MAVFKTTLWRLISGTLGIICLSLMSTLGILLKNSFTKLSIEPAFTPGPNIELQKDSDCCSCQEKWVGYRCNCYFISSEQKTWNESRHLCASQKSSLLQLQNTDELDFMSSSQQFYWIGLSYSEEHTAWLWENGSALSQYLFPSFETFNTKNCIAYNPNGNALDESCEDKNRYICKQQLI

Human Clec7A = molecular target: T5, Human Clec7A (human, UniProt Q9BXN2 1-247)
T5 construct: also called hClec7A
T5 sequence: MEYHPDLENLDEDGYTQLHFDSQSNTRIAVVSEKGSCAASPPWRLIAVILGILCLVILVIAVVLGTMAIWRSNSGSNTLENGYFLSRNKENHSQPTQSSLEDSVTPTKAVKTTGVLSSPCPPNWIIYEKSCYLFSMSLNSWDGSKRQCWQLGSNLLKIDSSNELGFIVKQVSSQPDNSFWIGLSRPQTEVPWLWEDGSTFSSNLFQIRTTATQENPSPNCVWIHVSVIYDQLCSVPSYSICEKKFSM

Human Clec5A = molecular target: T6, Human Clec5A (human, UniProt Q9NY25 1-188)
T6 construct: also called hClec5A
T6 sequence: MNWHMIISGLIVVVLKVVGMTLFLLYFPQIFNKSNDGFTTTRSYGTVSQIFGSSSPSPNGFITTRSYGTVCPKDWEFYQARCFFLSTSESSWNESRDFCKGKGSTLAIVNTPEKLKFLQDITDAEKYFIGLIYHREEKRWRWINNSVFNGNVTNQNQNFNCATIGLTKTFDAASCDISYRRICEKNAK

Human Clec9A = molecular target: T7, Human Clec9A (human, UniProt Q6UXN8 1-241)
T7 construct: also called hClec9A
T7 sequence (Q6UXN8 whole entry): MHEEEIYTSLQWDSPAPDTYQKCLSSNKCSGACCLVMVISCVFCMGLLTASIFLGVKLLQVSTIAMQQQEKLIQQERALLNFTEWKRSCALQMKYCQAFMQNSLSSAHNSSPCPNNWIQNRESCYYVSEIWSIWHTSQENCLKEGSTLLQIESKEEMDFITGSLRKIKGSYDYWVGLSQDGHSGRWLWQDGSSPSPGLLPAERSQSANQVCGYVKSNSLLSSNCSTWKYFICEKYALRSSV

Human Clec10A = molecular target: T8, Human Clec10A (human, UniProt Q8IUN9 1-316)
T8 construct: also called hClec10A
T8 sequence: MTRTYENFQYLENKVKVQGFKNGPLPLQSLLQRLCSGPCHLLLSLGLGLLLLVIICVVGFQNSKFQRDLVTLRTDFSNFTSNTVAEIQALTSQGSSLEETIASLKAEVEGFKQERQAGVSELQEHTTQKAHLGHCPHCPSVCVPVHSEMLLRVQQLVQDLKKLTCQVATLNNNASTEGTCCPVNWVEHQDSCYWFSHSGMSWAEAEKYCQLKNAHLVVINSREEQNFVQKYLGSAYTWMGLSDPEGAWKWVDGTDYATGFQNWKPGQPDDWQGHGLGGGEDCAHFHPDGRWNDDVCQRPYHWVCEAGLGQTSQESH

MFI normalized to WT (human CD161): 53.9 | MFI normalized to WT (cynomolgus CD161): 0.98 | MFI normalized to WT (Human KLRF1): 0.89 | MFI normalized to WT (Human CD94): 0.95 | MFI normalized to WT (Human Clec7A): 1.13 | MFI normalized to WT (Human Clec5A): 1.04 | MFI normalized to WT (Human Clec9A): 1.07 | MFI normalized to WT (Human Clec10A): 0.96
B1: anti-CD161 KW17 (antibody, V domains shown)
VH: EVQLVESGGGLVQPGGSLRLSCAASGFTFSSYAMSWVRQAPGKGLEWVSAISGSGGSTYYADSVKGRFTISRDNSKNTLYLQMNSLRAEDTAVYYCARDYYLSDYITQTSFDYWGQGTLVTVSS
VL: QSVLTQPPSVSGAPGQRVTISCTGSSSNIGAGYDVHWYQQLPGTAPKLLIYGNSNRPSGVPDRFSGSKSGTSASLAITGLQAEDEADYYCQSYDSSHTVFGGGTQLTVL
notes: Human, lambda light chain; scFv-Fc or full IgG not clear; also called KW17-Fc
